System: deep retinal vascular network formation in neonatal Balb/C mice
Experiment: Neonatal mouse retinal angiogenesis model
Format: in vivo
Details: for % of eyes with 0-10% inhibition of deep vascular layer / % of eyes with 10-25% inhibition of deep vascular layer / % of eyes with 25-50% inhibition of deep vascular layer / % of eyes with 50-75% inhibition of deep vascular layer / % of eyes with 75-100% inhibition of deep vascular layer / % of eyes with 100% inhibition of deep vascular layer / % of eyes with >95% inhibition of deep vascular layer: intravitreal P4, read P12
Text: Description of the Model. Immediately after birth (postnatal day zero; “P0”), retinal vasculature is virtually absent in the mouse. By four weeks after birth (P28) the retina has attained an adult pattern of retinal vessels coincident with the onset of vision. Physiological neovascularization of the retina occurs during this period via a stereotypical, biphasic developmental pattern of angiogenesis. During the primary phase of retinal vascular development, spoke-like peripapillary vessels grow radially from the central retinal artery and vein, becoming progressively interconnected by a capillary plexus that forms between them. This “inner retinal plexus” grows in area, volume and complexity, centrifugally, as a monolayer within the nerve fiber layer during the first seven to ten days following birth.
The second phase of retinal vessel formation begins between postnatal days 7 (P7) and 10 (P10) when collateral branches sprout from capillaries of the superficial plexus and penetrate into the retina where their tips branch and anastamose laterally to form a planar “deep vascular plexus”. While the deep vascular plexus is in place by P14, it undergoes extensive remodeling from P14 to P21. It is of interest to note that the formation of these vascular networks in the neonatal mouse are strikingly similar to the events occurring in the third trimester human fetus.
Advantages and Quantification of the Model. The reproducibility of the murine retinal development process and its easy accessibility in neonatal animals provide an opportunity to assess the efficacy of antiangiogenic compounds in a physiologically relevant model of angiogenesis. Additional advantages of the neonatal mouse model are the ability to qualitatively and quantitatively evaluate the angiostatic effect of putative antagonists of angiogenesis. Angiostatic activity was evaluated based upon the degree of angiogenesis in the deep, outer retinal vascular layer (secondary layer) that develops between P8 and P12. The appearance of the inner blood vessel network (primary layer) was evaluated for normal development and signs of toxicity.
Preparation of Compositions. Peptidomimetic integrin signaling inhibitor Compound (1) is solubilized in PBS at a concentration of about 20 mg/ml in PBS (1× concentration). T2-TrpRS is solubilized in PBS at a concentration of about 0.5 mg/ml (1× concentration). VEGF aptamer (pegaptanib sodium; Compound (2)) is solubilized in PBS at a concentration of about 2 mg/ml (1× concentration) to achieve an injection of approximately 1 μg/eye at 1× concentration. For all combination assays the compounds were prepared at 2 or 3 times the 1× concentration of each material and then combined to produce a final solution containing each individual compound at the same concentration as was used alone (e.g., 1×, 0.5×, 0.25× or 0.1×, as the case may be). For all assays, a single injection of 0.5 μl of PBS solutions of the drugs was administered intravitreally regardless of the number of compounds being injected. As used herein, the term “0.1×” refers to one tenth of the 1× concentration of a given material, “0.25×” refers to one quarter of the 1× concentration of a given material, “0.5×” refers to one half of the 1× concentration of a given material, and so forth for similar designations.
An in vivo angiogenesis assay in the neonatal mouse (Balb/C, The Jackson Laboratory, Bar Harbor, Me.) was used to evaluate the angiostatic activity of integrin signaling inhibitor Compound (1), T2-TrpRS, and VEGF aptamer Compound (2). Intravitreous injection and retina isolation was performed with a dissecting microscope (SMZ 645, Nikon, Japan). […] The samples (0.5 μl) were injected with a Hamilton syringe fitted with a 32-gauge needle (Hamilton Company, Reno, Nev.). The injection was made between the equator and the corneal limbus. During injection, the location of the needle tip was monitored by direct visualization to determine that it was in the vitreal cavity. […]

[1] = Ex 2, 0.1× of each (1×: T2-TrpRS 0.5, Comp. (2) 2 mg/ml)
[2] = Ex 3, 1× of each (T2-TrpRS 0.5, Comp. (2) 2 mg/ml)
[3] = Ex 6, 1× of each (T2-TrpRS 0.5, Comp. (2) 2 mg/ml)
[4] = Ex 7, 1× (T2-TrpRS 0.5, Comp. (2) 2 mg/ml)
[5] = Ex 9, 1× of each (Comp. (1) 20, Comp. (2) 2, T2-TrpRS 0.5 mg/ml)

B1: T2-TrpRS: 43 kDa angiostatic T2 fragment of human tryptophanyl-tRNA synthetase, SEQ ID NO: 1 (protein)
chain: MSAKGIDYDKLIVRFGSSKIDKELINRIERATGQRPHHFLRRGIFFSHRDMNQVLDAYENKKPFYLYTGRGPSSEAMHVGHLIPFIFTKWLQDVFNVPLVIQMTDDEKYLWKDLTLDQAYSYAVENAKDIIACGFDINKTFIFSDLDYMGMSSGFYKNVVKIQKHVTFNQVKGIFGFTDSDCIGKISFPAIQAAPSFSNSFPQIFRDRTDIQCLIPCAIDQDPYFRMTRDVAPRIGYPKPALLHSTFFPALQGAQTKMSASDPNSSIFLTDTAKQIKTKVNKHAFSGGRDTIEEHRQFGGNCDVDVSFMYLTFFLEDDDKLEQIRKDYTSGAMLTGELKKALIEVLQPLIAEHQARRKEVTDEIVKEFMTPRKLSFDFQ
modifications: homo sapiens
- inhibition of neovascularization (0.1× concentrations (1 μg/eye integrin antagonist, 0.2 μg/eye VEGF aptamer, 0.025 μg/eye T2-TrpRS)): negligible
- % of eyes with 0-10% inhibition of deep vascular layer [1]: 50%
- % of eyes with 10-25% inhibition of deep vascular layer [1]: 37.5%
- % of eyes with 25-50% inhibition of deep vascular layer [1]: 12.5%
- % of eyes with 50-75% inhibition of deep vascular layer [1]: 0%
- % of eyes with 75-100% inhibition of deep vascular layer [1]: 0%
- % of eyes with 100% inhibition of deep vascular layer [1]: 0%
- % of eyes with >95% inhibition of deep vascular layer [1]: 0%
- % of eyes with 0-10% inhibition of deep vascular layer [2]: 12.5%
- % of eyes with 10-25% inhibition of deep vascular layer [2]: 12.5%
- % of eyes with 25-50% inhibition of deep vascular layer [2]: 0%
- % of eyes with 50-75% inhibition of deep vascular layer [2]: 12.5%
- % of eyes with 75-100% inhibition of deep vascular layer [2]: 62.5%
- % of eyes with 100% inhibition of deep vascular layer [2]: 12.5%
- % of eyes with >95% inhibition of deep vascular layer [2]: 12.5%
- % of eyes with 0-10% inhibition of deep vascular layer (Ex 4, 1× (0.5 mg/ml)): 12.5%
- % of eyes with 10-25% inhibition of deep vascular layer (Ex 4, 1× (0.5 mg/ml)): 37.5%
- % of eyes with 25-50% inhibition of deep vascular layer (Ex 4, 1× (0.5 mg/ml)): 12.5%
- % of eyes with 50-75% inhibition of deep vascular layer (Ex 4, 1× (0.5 mg/ml)): 12.5%
- % of eyes with 75-100% inhibition of deep vascular layer (Ex 4, 1× (0.5 mg/ml)): 25%
- % of eyes with 100% inhibition of deep vascular layer (Ex 4, 1× (0.5 mg/ml)): 0%
- % of eyes with >95% inhibition of deep vascular layer (Ex 4, 1× (0.5 mg/ml)): 0%
- % of eyes with 0-10% inhibition of deep vascular layer (Ex 5, 1× (0.5 mg/ml)): 33.3%
- % of eyes with 10-25% inhibition of deep vascular layer (Ex 5, 1× (0.5 mg/ml)): 16.7%
- % of eyes with 25-50% inhibition of deep vascular layer (Ex 5, 1× (0.5 mg/ml)): 33.3%
- % of eyes with 50-75% inhibition of deep vascular layer (Ex 5, 1× (0.5 mg/ml)): 0%
- % of eyes with 75-100% inhibition of deep vascular layer (Ex 5, 1× (0.5 mg/ml)): 16.7%
- % of eyes with 100% inhibition of deep vascular layer (Ex 5, 1× (0.5 mg/ml)): 0%
- % of eyes with >95% inhibition of deep vascular layer (Ex 5, 1× (0.5 mg/ml)): 16.7%
- % of eyes with 0-10% inhibition of deep vascular layer [3]: 50%
- % of eyes with 10-25% inhibition of deep vascular layer [3]: 25%
- % of eyes with 25-50% inhibition of deep vascular layer [3]: 12.5%
- % of eyes with 50-75% inhibition of deep vascular layer [3]: 12.5%
- % of eyes with 75-100% inhibition of deep vascular layer [3]: 0%
- % of eyes with 100% inhibition of deep vascular layer [3]: 0%
- % of eyes with >95% inhibition of deep vascular layer [3]: 0%
- % of eyes with 0-10% inhibition of deep vascular layer [4]: 25%
- % of eyes with 10-25% inhibition of deep vascular layer [4]: 12.5%
- % of eyes with 25-50% inhibition of deep vascular layer [4]: 12.5%
- % of eyes with 50-75% inhibition of deep vascular layer [4]: 0%
- % of eyes with 75-100% inhibition of deep vascular layer [4]: 50%
- % of eyes with 100% inhibition of deep vascular layer [4]: 0%
- % of eyes with >95% inhibition of deep vascular layer [4]: 12.5%
- % of eyes with 0-10% inhibition of deep vascular layer (Ex 8, 1× (0.5 mg/ml)): 30%
- % of eyes with 10-25% inhibition of deep vascular layer (Ex 8, 1× (0.5 mg/ml)): 30%
- % of eyes with 25-50% inhibition of deep vascular layer (Ex 8, 1× (0.5 mg/ml)): 20%
- % of eyes with 50-75% inhibition of deep vascular layer (Ex 8, 1× (0.5 mg/ml)): 10%
- % of eyes with 75-100% inhibition of deep vascular layer (Ex 8, 1× (0.5 mg/ml)): 10%
- % of eyes with 100% inhibition of deep vascular layer (Ex 8, 1× (0.5 mg/ml)): 0%
- % of eyes with >95% inhibition of deep vascular layer (Ex 8, 1× (0.5 mg/ml)): 0%
- % of eyes with 0-10% inhibition of deep vascular layer [5]: 12.5%
- % of eyes with 10-25% inhibition of deep vascular layer [5]: 0%
- % of eyes with 25-50% inhibition of deep vascular layer [5]: 25%
- % of eyes with 50-75% inhibition of deep vascular layer [5]: 12.5%
- % of eyes with 75-100% inhibition of deep vascular layer [5]: 50%
- % of eyes with 100% inhibition of deep vascular layer [5]: 0%
- % of eyes with >95% inhibition of deep vascular layer [5]: 12.5%
- % of eyes with 0-10% inhibition of deep vascular layer (Ex 10, 0.1× (1×=0.5 mg/ml)): 75%
- % of eyes with 10-25% inhibition of deep vascular layer (Ex 10, 0.1× (1×=0.5 mg/ml)): 25%
- % of eyes with 25-50% inhibition of deep vascular layer (Ex 10, 0.1× (1×=0.5 mg/ml)): 0%
- % of eyes with 50-75% inhibition of deep vascular layer (Ex 10, 0.1× (1×=0.5 mg/ml)): 0%
- % of eyes with 75-100% inhibition of deep vascular layer (Ex 10, 0.1× (1×=0.5 mg/ml)): 0%
- % of eyes with 0-10% inhibition of deep vascular layer (Ex 10, 0.3× (1×=0.5 mg/ml)): 33.3%
- % of eyes with 10-25% inhibition of deep vascular layer (Ex 10, 0.3× (1×=0.5 mg/ml)): 16.7%
- % of eyes with 25-50% inhibition of deep vascular layer (Ex 10, 0.3× (1×=0.5 mg/ml)): 8.3%
- % of eyes with 50-75% inhibition of deep vascular layer (Ex 10, 0.3× (1×=0.5 mg/ml)): 16.7%

From US7528106B2, “Compositions and methods for treatment of neovascular diseases” (The Scripps Research Institute, priority 2004, dated 2009)
